The supplement of paper PMC9170038

Test system: K4 kissing-loop RNA reporter
Test: apparent KD of K4 kissing-loop reporter; higher = weaker reporter binding
Conditions: Eterna round: R107
Procedure: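 RNA-MaP round R107: designed RNA switches with theophylline, tryptophan, arginine or FMN aptamers are transcribed on-chip within common flanks. They are titrated with a labelled K4 kissing-loop RNA reporter in RNA-MaP buffer (100 mM Tris pH 7.5, 80 mM KCl, 4 mM MgCl2), without ligand or with the indicated ligand. Median apparent KD per design.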

[1] = input ligand: theophylline 20 uM
[2] = input ligand: tryptophan 2.4 mM
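Further: bound reporter read as fluorescence of individual clusters on recovered sequencing chips by microscopy, with normalized cluster intensities fitted with a binding model.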

CUGGGUUGACGAAAAGUCAACAAACGAGAAGGAGCGCACGAAAGUGCAGGUAGGUCGCUCAGUCCAGUGAUGUUGGAUCAUCCAG [#SwitchBubble 9 #K4Late]
apparent KD of K4 kissing-loop reporter (input ligand: FMN 200 uM): 265 nM
apparent KD of K4 kissing-loop reporter (input ligand: arginine 13.2 mM): 763 nM
apparent KD of K4 kissing-loop reporter (input ligand: none): 687 nM
apparent KD of K4 kissing-loop reporter [1]: 840 nM
apparent KD of K4 kissing-loop reporter [2]: 323 nM

AGUGAACGAGCGGCCGCCACUAACUGAGUGAUGUUCGUGAGUAGUGCUGUUCUCAUGAUUGUUUUUAGGACCGGGUUCGAUGUUG [ttbjmullin]
apparent KD of K4 kissing-loop reporter (input ligand: FMN 200 uM): 483 nM
apparent KD of K4 kissing-loop reporter (input ligand: arginine 13.2 mM): 329 nM
apparent KD of K4 kissing-loop reporter (input ligand: none): 391 nM
apparent KD of K4 kissing-loop reporter [1]: 431 nM
apparent KD of K4 kissing-loop reporter [2]: 360 nM

CAACCGUAACACGAUACCAGCCUAGAAGCCAGUGAUGUUGGCCUUUUUUCGGAAAUGAAAGGCCCUUGGCAGCGUGGAUAAAAUG [Lelabiised]
apparent KD of K4 kissing-loop reporter (input ligand: FMN 200 uM): 451 nM
apparent KD of K4 kissing-loop reporter (input ligand: arginine 13.2 mM): 464 nM
apparent KD of K4 kissing-loop reporter (input ligand: none): 505 nM
apparent KD of K4 kissing-loop reporter [1]: 379 nM
apparent KD of K4 kissing-loop reporter [2]: 501 nM

GGCAGUGAUGUUGCCAGUGGCAGAUGAGAAGGAGCGUGGUGAGACACAGGUAGGUCGCUCAUUGAAAUUGCUGUCACUAAAAUGC [#5]
apparent KD of K4 kissing-loop reporter (input ligand: FMN 200 uM): 289 nM
apparent KD of K4 kissing-loop reporter (input ligand: arginine 13.2 mM): 322 nM
apparent KD of K4 kissing-loop reporter (input ligand: none): 266 nM
apparent KD of K4 kissing-loop reporter [1]: 234 nM
apparent KD of K4 kissing-loop reporter [2]: 215 nM

UGUGGAGGAUAUGAUACCAGCAGUGAGAGAGAGGAAGUAUAGUGAUGUUAUAUGAGAGAAUGCCCUUGGCAGCGUAUGUAGUAGG [SSTheophylB.I]
apparent KD of K4 kissing-loop reporter (input ligand: FMN 200 uM): 270 nM
apparent KD of K4 kissing-loop reporter (input ligand: arginine 13.2 mM): 210 nM
apparent KD of K4 kissing-loop reporter (input ligand: none): 218 nM
apparent KD of K4 kissing-loop reporter [1]: 208 nM
apparent KD of K4 kissing-loop reporter [2]: 191 nM

AAGUGAUGUUGUAGUGAUGUUGUGAUGUUGCAGGAUAUAUAGUGAUGUAGAAGGGUAUGUACAGUUUUUUUUUUUGAGUGUUGAU [sscsmullin]
apparent KD of K4 kissing-loop reporter (input ligand: FMN 200 uM): 79.7 nM
apparent KD of K4 kissing-loop reporter (input ligand: arginine 13.2 mM): 36 nM
apparent KD of K4 kissing-loop reporter (input ligand: none): 62.2 nM
apparent KD of K4 kissing-loop reporter [1]: 47.8 nM
apparent KD of K4 kissing-loop reporter [2]: 66.2 nM

CGCAGUGAUGUUGCUUAUAUUCUUGGUUAACGAGGACCGGUACGGCCGCCACUCGAUUUCUAACUAUUCCAGUGUUAAUUUGAGU [JR_ExcTryptoA_Sub006]
apparent KD of K4 kissing-loop reporter (input ligand: FMN 200 uM): 444 nM
apparent KD of K4 kissing-loop reporter (input ligand: arginine 13.2 mM): 488 nM
apparent KD of K4 kissing-loop reporter (input ligand: none): 502 nM
apparent KD of K4 kissing-loop reporter [1]: 564 nM
apparent KD of K4 kissing-loop reporter [2]: 306 nM

AGCUCAGAGUGACUCGAUAAGAGUCACAAACGAGGACCGGUACGGCCGCCACUCGAAAUAACGAGAGUGAUGUUUUCGCUGAGCA [FiskerMod 6 - Jieux - Same State Tryptophan A]
apparent KD of K4 kissing-loop reporter (input ligand: FMN 200 uM): 935 nM
apparent KD of K4 kissing-loop reporter (input ligand: arginine 13.2 mM): 630 nM
apparent KD of K4 kissing-loop reporter (input ligand: none): 857 nM
apparent KD of K4 kissing-loop reporter [1]: 660 nM
apparent KD of K4 kissing-loop reporter [2]: 541 nM

GGUUCGAGUGAUGUUCGGGUCGAUUGGGAAGGAGCGCCCGGAAGGGCAGGUAGGUCGCCCGGGCCGCGCGGGAAACCGCGCGUCC [#2 Same State - Arginine A Attempt #7 (HarryS)]
apparent KD of K4 kissing-loop reporter (input ligand: FMN 200 uM): 216 nM
apparent KD of K4 kissing-loop reporter (input ligand: arginine 13.2 mM): 121 nM
apparent KD of K4 kissing-loop reporter (input ligand: none): 175 nM
apparent KD of K4 kissing-loop reporter [1]: 147 nM
apparent KD of K4 kissing-loop reporter [2]: 144 nM

CGUUUAGUGAUGUUAAGCGUCCACUACGAUACCAGAACUAUAACCUUCCCUUGGCAGCGUUUAUAUUGUAACUCAUGUGUUAAUU [theeternabot_exclusion_KL_Theo_A_11]
apparent KD of K4 kissing-loop reporter (input ligand: FMN 200 uM): 520 nM
apparent KD of K4 kissing-loop reporter (input ligand: arginine 13.2 mM): 296 nM
apparent KD of K4 kissing-loop reporter (input ligand: none): 474 nM
apparent KD of K4 kissing-loop reporter [1]: 503 nM
apparent KD of K4 kissing-loop reporter [2]: 468 nM

UGGACCUGACUCGAUAAGAGUCAAUGAGAUACCAGUGACGAAAGUCACCCUUGGCAGCUCACUGCCAGUGAUGUUGGUAGGUCCU [#SwitchBubble 3 #StaticStem]
apparent KD of K4 kissing-loop reporter (input ligand: FMN 200 uM): 1250 nM
apparent KD of K4 kissing-loop reporter (input ligand: arginine 13.2 mM): 919 nM
apparent KD of K4 kissing-loop reporter (input ligand: none): 1300 nM
apparent KD of K4 kissing-loop reporter [1]: 738 nM
apparent KD of K4 kissing-loop reporter [2]: 1070 nM

AGAAACUUGUAUGUCGGGUGUGCGCGCGAUACCAGCCAAAUGGAUGGCCCUUGGCAGCGCAGCGAGUGAUGUUCGCCCGCUUGAC [Exclusion Theophylline A GF 22]
apparent KD of K4 kissing-loop reporter (input ligand: FMN 200 uM): 251 nM
apparent KD of K4 kissing-loop reporter (input ligand: arginine 13.2 mM): 239 nM
apparent KD of K4 kissing-loop reporter (input ligand: none): 302 nM
apparent KD of K4 kissing-loop reporter [1]: 354 nM
apparent KD of K4 kissing-loop reporter [2]: 232 nM

UUGAUAUGAUAGUAUCUUGUUUGAUAAAGGCAGGAUAUCGUAUAUUUGAGAAGGGCCAUUAUAUGCAGUGAUGUUGCAAAUAAGU [Exclusion FMN A Gf 25]
apparent KD of K4 kissing-loop reporter (input ligand: FMN 200 uM): 43.5 nM
apparent KD of K4 kissing-loop reporter (input ligand: arginine 13.2 mM): 56.7 nM
apparent KD of K4 kissing-loop reporter (input ligand: none): 41.3 nM
apparent KD of K4 kissing-loop reporter [1]: 61.4 nM
apparent KD of K4 kissing-loop reporter [2]: 40 nM

UUUUGCGCGUACGAUACCAGUAUCUGUAAGAGUGAUGUUCAGCGCUGAAGACAGCAGCGAUACCCUUGGCAGCGUUACAUGCUAG [theeternabot_sameState_KL_Theo_B_22]
apparent KD of K4 kissing-loop reporter (input ligand: FMN 200 uM): 797 nM
apparent KD of K4 kissing-loop reporter (input ligand: arginine 13.2 mM): 422 nM
apparent KD of K4 kissing-loop reporter (input ligand: none): 553 nM
apparent KD of K4 kissing-loop reporter [1]: 475 nM
apparent KD of K4 kissing-loop reporter [2]: 530 nM

AGUACAAUGGCGGCCGCCACUCAACAGCAGAUCAAAGAUCUGCUUCACUCAGUGAUGUUGAGUGAGAGGACCGGGCCUUUGUACA [Omei KL Tryp B SS B v4]
apparent KD of K4 kissing-loop reporter (input ligand: FMN 200 uM): 793 nM
apparent KD of K4 kissing-loop reporter (input ligand: arginine 13.2 mM): 614 nM
apparent KD of K4 kissing-loop reporter (input ligand: none): 783 nM
apparent KD of K4 kissing-loop reporter [1]: 853 nM
apparent KD of K4 kissing-loop reporter [2]: 216 nM

GCCGAAUCGUUGGGCUCAGUGAUGUUGAUCCGAGGACCGGUACGGCCGCCACUCGAAUGGCAGUGACCACACUGGUAACGUUAAA [theeternabot_exclusion_KL_Trp_A_43]
apparent KD of K4 kissing-loop reporter (input ligand: FMN 200 uM): 573 nM
apparent KD of K4 kissing-loop reporter (input ligand: arginine 13.2 mM): 490 nM
apparent KD of K4 kissing-loop reporter (input ligand: none): 699 nM
apparent KD of K4 kissing-loop reporter [1]: 575 nM
apparent KD of K4 kissing-loop reporter [2]: 261 nM

AUAGGAGUGAUGUUCCUUAGUUUCUCCGAUACCAGUAUGGAAACAUACCCUUGGCAGCGGGAGACCGCUGAUUAGGAAACUAGUC [Theophylline A K4 8]
apparent KD of K4 kissing-loop reporter (input ligand: FMN 200 uM): 255 nM
apparent KD of K4 kissing-loop reporter (input ligand: arginine 13.2 mM): 242 nM
apparent KD of K4 kissing-loop reporter (input ligand: none): 261 nM
apparent KD of K4 kissing-loop reporter [1]: 251 nM
apparent KD of K4 kissing-loop reporter [2]: 220 nM
